{"source": "the supplement of paper PMC12042874", "note": "± gives the uncertainty stated by the source."}
{"test": "amyloid nucleation score (Sup35N fusion, yeast selection) (log enrichment); library NNK3; higher = more nucleation; inactive = no reads after selection", "method_in_brief": "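Sup35N was fused to peptides of 20 random codons and expressed in psi-negative yeast, which were induced with 100 μM copper sulfate for 24 hours and then grown on medium lacking adenine and uracil for 7 days at 30°C. Plasmid inserts from input and output were sequenced on Illumina. The nucleation score is the DiMSum log enrichment of output over input reads, centred on the mode score of non-aggregating sequences. Sequences with under 100 input reads were left out, and random libraries had three technical output replicates.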"}
{"substance": "VFGPRRPMVNCSN", "amyloid nucleation score": "inactive"}
{"substance": "VFHRQERMLTPCT", "amyloid nucleation score": "inactive"}
{"substance": "VFKMACEWSALWWNLLHTYS", "amyloid nucleation score": "inactive"}
{"substance": "VFLKSNSAVQLSFRFNYHNL", "amyloid nucleation score": "inactive"}
{"substance": "VFLLCSLILWRAQLQLVCSL", "amyloid nucleation score": "inactive"}
{"substance": "VFNFPQSDGNRSYMDFMAIQ", "amyloid nucleation score": "inactive"}
{"substance": "VFNIRHSSDPRLYLTYVMSS", "amyloid nucleation score": "1.19 ± 0.12"}
{"substance": "VFNRSCINFKRYGSA", "amyloid nucleation score": "inactive"}
{"substance": "VFNYVIGPGDKFAD", "amyloid nucleation score": "inactive"}
{"substance": "VFPLSAY", "amyloid nucleation score": "inactive"}
{"substance": "VFPYFELCVFLPSYFREAET", "amyloid nucleation score": "inactive"}
{"substance": "VFSEWYVFHGQEVSTIHCAH", "amyloid nucleation score": "inactive"}
{"substance": "VFSGGVRETLNSS", "amyloid nucleation score": "inactive"}
{"substance": "VFSGIL", "amyloid nucleation score": "inactive"}
{"substance": "VFSMWFSGLTTSIYRSLED", "amyloid nucleation score": "inactive"}
{"substance": "VFSNGSRDAWSFFNQKSNRF", "amyloid nucleation score": "0.193 ± 0.21"}
{"substance": "VFTDLCTYKTCTYVIPCTAE", "amyloid nucleation score": "inactive"}
{"substance": "VFVSSKTISLSGSLMISPNL", "amyloid nucleation score": "1.69 ± 0.086"}
{"substance": "VFYLCNFWGCWTCSIAVIVS", "amyloid nucleation score": "0.576 ± 0.17"}
{"substance": "VGDLLCPIASLGSRRNLWCR", "amyloid nucleation score": "inactive"}
{"substance": "VGESDKLHFAH", "amyloid nucleation score": "inactive"}
{"substance": "VGFLWMQRVNEVDK", "amyloid nucleation score": "inactive"}
{"substance": "VGGIRLRIE", "amyloid nucleation score": "inactive"}
{"substance": "VGHFISYCNRIFSAKAIIVF", "amyloid nucleation score": "inactive"}
{"substance": "VGKLLVGTWWHGSYRSMSKR", "amyloid nucleation score": "inactive"}
{"substance": "VGLWYSDIISVFCLNLMRLV", "amyloid nucleation score": "inactive"}
{"substance": "VGNYINVANMYSWGVIIRND", "amyloid nucleation score": "2.39 ± 0.072"}
{"substance": "VGRHAYRC", "amyloid nucleation score": "inactive"}
{"substance": "VGRSEIYPACPLHSFKMDKF", "amyloid nucleation score": "inactive"}
{"substance": "VGSNSDSVCCSPVVAGFQWT", "amyloid nucleation score": "1.07 ± 0.1"}
{"substance": "VGYVFFGFPVLKYARQESLS", "amyloid nucleation score": "inactive"}
{"substance": "VHFKRVEKG", "amyloid nucleation score": "inactive"}
{"substance": "VHGPKNCWKCDFKER", "amyloid nucleation score": "inactive"}
{"substance": "VHGVRV", "amyloid nucleation score": "inactive"}
{"substance": "VHLGSFDFIFLNMSSTRSLG", "amyloid nucleation score": "inactive"}
{"substance": "VHMNRSGSAALEFGMLWEYI", "amyloid nucleation score": "inactive"}
{"substance": "VHRWGYQCSWVEQ", "amyloid nucleation score": "inactive"}
{"substance": "VHSPWVNNLYQCWTYYFLLL", "amyloid nucleation score": "0.162 ± 0.88"}
{"substance": "VHTMEEVA", "amyloid nucleation score": "inactive"}
{"substance": "VHYKVKGSLPFCCGYFNSLW", "amyloid nucleation score": "1.67 ± 0.079"}
{"substance": "VHYWCGTQVVA", "amyloid nucleation score": "inactive"}
{"substance": "VIALDVNL", "amyloid nucleation score": "inactive"}
{"substance": "VICKAPGRPGHLCCKCIAVH", "amyloid nucleation score": "inactive"}
{"substance": "VIDFYVEPCLIYGAPPCWLH", "amyloid nucleation score": "0.606 ± 0.38"}
{"substance": "VIDWAYSPKPSDLTG", "amyloid nucleation score": "1.09 ± 0.16"}
{"substance": "VIFDLVVGCGAVL", "amyloid nucleation score": "inactive"}
{"substance": "VIGHMIGMDY", "amyloid nucleation score": "inactive"}
{"substance": "VIGTGN", "amyloid nucleation score": "inactive"}
{"substance": "VIILMVIVLYNRVSFETFSV", "amyloid nucleation score": "inactive"}
{"substance": "VIILTYVSMLTTAHINGWSG", "amyloid nucleation score": "0.309 ± 0.29"}
{"substance": "VILLSLAY", "amyloid nucleation score": "inactive"}
{"substance": "VILMFDSCGGFDW", "amyloid nucleation score": "inactive"}
{"substance": "VIMGDINQVAQPGDLRRFRC", "amyloid nucleation score": "-0.423 ± 1.4"}
{"substance": "VIRVLQPFDCGCILYSCLIS", "amyloid nucleation score": "inactive"}
{"substance": "VISGVIVMWYAWMWAGYRVR", "amyloid nucleation score": "inactive"}
{"substance": "VISIPHGSAIRTCIVITMSL", "amyloid nucleation score": "inactive"}
{"substance": "VISVTRSYSHTYK", "amyloid nucleation score": "inactive"}
{"substance": "VITVIFVSYYCIPVWYW", "amyloid nucleation score": "1.81 ± 0.099"}
{"substance": "VIVTVVSPTSMRNGDTRMQI", "amyloid nucleation score": "inactive"}
{"substance": "VIVYLFICNADLYFYKMSDF", "amyloid nucleation score": "1.72 ± 0.12"}
{"substance": "VIWLGRRCTFLHKPTSRGQW", "amyloid nucleation score": "0.021 ± 0.6"}
{"substance": "VIYRSYLRIDSFIGRGGLII", "amyloid nucleation score": "0.567 ± 0.26"}
{"substance": "VKGMKCWCQVRSESGLVSNA", "amyloid nucleation score": "inactive"}
{"substance": "VKLALRTAFVGSQVYRILRA", "amyloid nucleation score": "-0.076 ± 0.88"}
{"substance": "VKLRPLCAVKIRRYLYVVRE", "amyloid nucleation score": "-0.054 ± 0.3"}
{"substance": "VKLSL", "amyloid nucleation score": "inactive"}
{"substance": "VKWKDVDLFGLC", "amyloid nucleation score": "inactive"}
{"substance": "VKWWGAES", "amyloid nucleation score": "inactive"}
{"substance": "VKYVNEPVSHSIDWIPSPFP", "amyloid nucleation score": "0.559 ± 0.24"}
{"substance": "VLFSFAMLFKACLACFISCV", "amyloid nucleation score": "inactive"}
{"substance": "VLGYYAKGDRSSWSRGYSY", "amyloid nucleation score": "0.194 ± 0.87"}
{"substance": "VLKASNFV", "amyloid nucleation score": "inactive"}
{"substance": "VLKDNF", "amyloid nucleation score": "inactive"}
{"substance": "VLKFFLTAMVD", "amyloid nucleation score": "inactive"}
{"substance": "VLLAIGWVGGIFCGIWAGSH", "amyloid nucleation score": "inactive"}
{"substance": "VLLPAGRIR", "amyloid nucleation score": "inactive"}
{"substance": "VLLVLVI", "amyloid nucleation score": "inactive"}
{"substance": "VLMISCTS", "amyloid nucleation score": "inactive"}
{"substance": "VLMSYQVCV", "amyloid nucleation score": "inactive"}
{"substance": "VLNSIGPYVMTKR", "amyloid nucleation score": "0.139 ± 0.63"}
{"substance": "VLPENIILNFIQMSDNRFLL", "amyloid nucleation score": "1.8 ± 0.072"}
{"substance": "VLQLDL", "amyloid nucleation score": "inactive"}
{"substance": "VLRAGELLF", "amyloid nucleation score": "inactive"}
{"substance": "VLRSNHFD", "amyloid nucleation score": "inactive"}
{"substance": "VLSFLPCGLIPIISVALWCC", "amyloid nucleation score": "1.17 ± 0.099"}
{"substance": "VLTSYGRNRH", "amyloid nucleation score": "inactive"}
{"substance": "VMFCFKRHLL", "amyloid nucleation score": "0.922 ± 0.15"}
{"substance": "VMGDSVRIAELQIWAEINGL", "amyloid nucleation score": "1.07 ± 0.14"}
{"substance": "VMHMWCHQGRVWFSTSGFLG", "amyloid nucleation score": "0.35 ± 0.19"}
{"substance": "VMNHLRRTNLVPTSAVNAYN", "amyloid nucleation score": "inactive"}
{"substance": "VMQQYLYNLCCL", "amyloid nucleation score": "2.83 ± 0.052"}
{"substance": "VMRFHVLKVLACCVNGGFDL", "amyloid nucleation score": "2.73 ± 0.072"}
{"substance": "VMSCYAYYFTTRQDFPFLWD", "amyloid nucleation score": "inactive"}
{"substance": "VMSGAKPARSLFLSTLQHIS", "amyloid nucleation score": "inactive"}
{"substance": "VMSSMWLAGQTWLSYNCICD", "amyloid nucleation score": "2.35 ± 0.075"}
{"substance": "VMVRTNMCR", "amyloid nucleation score": "inactive"}
{"substance": "VMWPIGSCDRE", "amyloid nucleation score": "inactive"}
{"substance": "VNDPEAR", "amyloid nucleation score": "-0.391 ± 1.2"}
{"substance": "VNDSAGVKLAVDCERTRKGG", "amyloid nucleation score": "-0.5 ± 0.98"}
{"substance": "VNDVLIRKCLAMESNVNEAI", "amyloid nucleation score": "inactive"}
{"substance": "VNFILSTAHLL", "amyloid nucleation score": "inactive"}
{"substance": "VNIRLMVKIRFDSVLRILPY", "amyloid nucleation score": "0.509 ± 0.31"}
{"substance": "VNLFHSYCMAISRIITISSL", "amyloid nucleation score": "inactive"}
{"substance": "VNSMSC", "amyloid nucleation score": "inactive"}
{"substance": "VNWHNIKVTEDVKVG", "amyloid nucleation score": "inactive"}
{"substance": "VNYDSVLYLVFLCIYLHKNR", "amyloid nucleation score": "inactive"}
{"substance": "VPSNLGKPHMCRRSRDYFTA", "amyloid nucleation score": "inactive"}
{"substance": "VPSVYKKRWWYHKPWHNRHV", "amyloid nucleation score": "inactive"}
{"substance": "VPTVLDRFDMMHVSEYRDGA", "amyloid nucleation score": "inactive"}
{"substance": "VQCRSHWHWRRPGPEARSVW", "amyloid nucleation score": "inactive"}
{"substance": "VQFLRFQVHELFSRPFIA", "amyloid nucleation score": "inactive"}
{"substance": "VQGKALAS", "amyloid nucleation score": "inactive"}
{"substance": "VQGSTIGG", "amyloid nucleation score": "inactive"}
{"substance": "VQGTTVDMDYYFTVSCLHAK", "amyloid nucleation score": "inactive"}
{"substance": "VQKSMR", "amyloid nucleation score": "inactive"}
{"substance": "VQPVGSSKGVRGVE", "amyloid nucleation score": "0.983 ± 0.2"}
{"substance": "VQWSVSFLSVVGVPWYRRLV", "amyloid nucleation score": "inactive"}
{"substance": "VRCVVGITVFGIHERVTSER", "amyloid nucleation score": "0.169 ± 0.61"}
{"substance": "VRDIRAIL", "amyloid nucleation score": "-0.551 ± 1.1"}
{"substance": "VRFTHKCSLG", "amyloid nucleation score": "inactive"}
{"substance": "VRGGHSTTGI", "amyloid nucleation score": "inactive"}
{"substance": "VRGYLYRCKAGSLACHPDPG", "amyloid nucleation score": "inactive"}
